Results on one molecule are retold here after article doi:10.1101/2020.02.01.930172 (bioRxiv, 2020).

The target of this experiment is GST-SIRT6 K33R (human, UniProt Q8N6T7 1-355, K33R). As to the kind of experiment: pull-down.
GST-SIRT6 K33R, sequence (Q8N6T7 whole entry K33R): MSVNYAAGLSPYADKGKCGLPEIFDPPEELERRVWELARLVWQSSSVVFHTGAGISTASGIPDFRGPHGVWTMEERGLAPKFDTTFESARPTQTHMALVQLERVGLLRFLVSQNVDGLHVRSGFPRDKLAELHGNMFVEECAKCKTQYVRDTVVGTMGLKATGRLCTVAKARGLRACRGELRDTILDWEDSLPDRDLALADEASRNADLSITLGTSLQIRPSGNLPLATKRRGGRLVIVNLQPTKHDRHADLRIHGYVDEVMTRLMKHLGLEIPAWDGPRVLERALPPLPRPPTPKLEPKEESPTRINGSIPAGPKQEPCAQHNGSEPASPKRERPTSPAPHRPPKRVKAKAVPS

B1: biotin-labeled C-terminal γH2AX peptide (peptide)
peptide: GKKATQASQEY
On to B1, for which the binding result was “binds”.
